Measurements taken from paper PMC4134374.

What was measured:
[1] = target: TMR-labelled 2RA H4-tail peptide; test: fluorescence polarisation
[2] = target: TMR-labelled wt H4-tail peptide; test: fluorescence polarisation

## wt Acf1 (accessory subunit of human ACF), isolated (from UniProt Q9NRL2 1-1556) (natural protein)
[1]
  Kd: 41 nM
[2]
  Kd: 3 nM

## ΔC-term Acf1 (residues 1423-1556 deleted) (from UniProt Q9NRL2 1-1422) (domain or fragment)
[2]
  Kd: 2 nM
